# Data reported in patent US20260184766A1 (APPLIED BIOMEDICAL SCIENCE INSTITUTE, published 2026).
# Experiments:
# [1] = biological target: T1, SARS CoV-2 spike trimer protein from the parental Wuhan-Hu-1 isolate (recombinant stabilized extracellular … (SARS-CoV-2 (Wuhan-Hu-1))); experiment: ELISA on coated spike protein, anti-human Fc-HRP, OD450
# T1 construct: also called Spike protein
# [2] = biological target: T1, SARS CoV-2 spike trimer protein from …; experiment: ELISA on coated recombinant stabilized spike protein, panel WT, OD 450
# [3] = biological target: T1, SARS CoV-2 spike trimer protein from …; experiment: ELISA, spike coated, chimeric IgG1
Binder,EC50 (read off the curve) [1],EC50 (read off the curve) [2],EC50 [3]
"R2G3 chimeric bovine-human IgG1 (ultralong CDR3) (antibody, also called 2G3 IgG; R2-G3 IgG) VH: QVQLRESGPSLVKPSQTLSLTCAASGFSLSDKAVGWVRRAPGKALEWLGSIDTGGSTGYNPGLKSRLSITKDNSKSQVSLSISSVTSEDSATYYCATVHQKTAEGDKTCPDGYEHTCGCIGGCGCKRSACIGALCCQASLGGWLSDGETYTYEFHVDTWGQGLVVTVSS VL: QAVLNQPSSVSGSLGQRVSITCSGSSSNVGNGYVSWYQLIPGSAPRTLIYGDTSRASGVPDRFSGSRSGNTATLTISSLQAEDEADYFCASAEDSSSNAVFGSGTTLTVL",~0.01 nM,~0.4 nM,–
"RBD F4 chimeric bovine-human IgG1 (antibody, V domains shown) VH: QVQLRESGPSLVKPSQTLSLTCTVSGFSLSSNGVVWVRQAPGKALEWLGDICSTGGTSFNPALKSRLSIAKDNSKSQVSLSVRSVTPEDTATYYCARSRGYDCYANVDALDYVDAWGQGLLVTVSS VL: QAVLNQPSSVSGSLGQRVSITCSGSSSNVGNGYVSWYQLIPGSAPRTLIYGDTSRASGVPDRFSGSRSGNTATLTISSLQAEDEADYFCASAEDSSSNAVFGSGTTLTVL",–,–,0.03 nM
"R2D6 chimeric bovine-human IgG1 (antibody, V domains shown) VH: QVQLRESGPSLVKPSQTLSLTCTTSGFSLSSYAVGWVRQAPGKALEWVGDIDYVGNTDYNPALKSRLSITKDNSKSQVSLVVSSVTAEDAATYYCAKYSGAYAYAACNYYGWRCAWESYIDAWGQGLLVTVSS VL: QAVLNQPSSVSGSLGQRVSITCSGSSSNVGNGYVSWYQLIPGSAPRTLIYGDTSRASGVPDRFSGSRSGNTATLTISSLQAEDEADYFCASAEDSSSNAVFGSGTTLTVL",–,–,0.41 nM
"R2C3 (R5C1) chimeric bovine-human IgG1 (ultralong CDR3) (antibody, also called SA-R2C3) VH: QVQLRESGPSLVKPSQTLSLTCTASGFSLSDKPVGWVRQAPGKPLEWLGSIDTAENTGYNPGLKSRLSITKDNSKSQVSLSLSSVTTEDSATYYCATVHQKTRKEKSCPDGYLYSSNTGRGYDCGVWTCRRVGGEFCSATGDWTSPSEEDFYEFYVDTWGQGAPVTVSS VL: QAVLNQPSSVSGSLGQRVSITCSGSSSNVGNGYVSWYQLIPGSAPRTLIYGDTSRASGVPDRFSGSRSGNTATLTISSLQAEDEADYFCASAEDSSSNAVFGSGTTLTVL",–,~0.3 nM,0.39 nM
"R2B1 chimeric bovine-human IgG1 (antibody, V domains shown) VH: QVQLRESGPSLVKPSQTLSLTCTVSGFSLSDNNVGWVRQAPGKALEWLGVMHNDGNKGYNPALKSRLSITKDSSKSQVSLSLSSVTSEDTATYYCTRDNARCDSWTYDSCDTWYRNSWHVDAWGQGLLVTVSS VL: QAVLNQPSSVSGSLGQRVSITCSGSSSNVGNGYVSWYQLIPGSAPRTLIYGDTSRASGVPDRFSGSRSGNTATLTISSLQAEDEADYFCASAEDSSSNAVFGSGTTLTVL",–,–,0.37 nM
"R2F12 chimeric bovine-human IgG1 (ultralong CDR3) (antibody, also called RR2F12) VH: QVQLRESGPSLVKPSQTLSLTCTVSGFSLSDKAVGWVRRAPGKALEWLGSIDTGGMTGYNPGLKSRLSITKDNSKSQVSLSVNSVTTEDSATYYCATVDQKTKNACPDDFDYRCSCIGGCGCARKGCVGPLCCRSDLGGYLTDSPAYIYEWYIDLWGQGLLVTVSS VL: QAVLNQPSSVSGSLGQRVSITCSGSSSNVGNGYVSWYQLIPGSAPRTLIYGDTSRASGVPDRFSGSRSGNTATLTISSLQAEDEADYFCASAEDSSSNAVFGSGTTLTVL",~0.02 nM,~0.3 nM,0.05 nM
SR3A3 chimeric bovine-human IgG1 (ultralong CDR3) (antibody) VH: QVQLRESGPSLVKPSQTLSLTCTISGFSLSSYAVLWVRQAPGKPLEWLGSIDTAENTGYNPGLKSRLSITKDNSKSQVSLSVSSVTTEDSATYYCATVHQKTRKEKNCPDGYIYSSNITSGFDCGVWICRRVGSAFCSRTGDYTSPTELDIYEFYVEGWGQGVPVTVSS VL: QAVLNQPSSVSGSLGQRVSITCSGSSSNVGNGYVSWYQLIPGSAPRTLIYGDTSRASGVPDRFSGSRSGNTATLTISSLQAEDEADYFCASAEDSSSNAVFGSGTTLTVL,–,–,0.037 nM
"RBD C6 chimeric bovine-human IgG1 (antibody, V domains shown) VH: QVQLRESGPSLVKPSQTLSLTCTVSGFSLSSNGVVWVRQAPGRPLEWLGDICSNGGTSFNPALKSRLSIAKDNSESQVSLTVRSVTPEDTATYYCARSRGYDCYAYVYALDTVDAWGQGLLVTVSS VL: QAVLNQPSSVSGSLGQRVSITCSGSSSNVGNGYVSWYQLIPGSAPRTLIYGDTSRASGVPDRFSGSRSGNTATLTISSLQAEDEADYFCASAEDSSSNAVFGSGTTLTVL",–,–,0.03 nM
"RBD A2 chimeric bovine-human IgG1 (antibody, V domains shown) VH: QVQLRESGPSLVKPLQILSLTCTVSGFSLSSNGVVWVRQAPGKALEWLGDICSTGGTSFNPALKSRLSIAKDNSKSQVSLSVRSVTPEDTATYYCARSRGYDCYANVDALDYVDAWGQGLLVTVSS VL: QAVLNQPSSVSGSLGQRVSITCSGSSSNVGNGYVSWYQLIPGSAPRTLIYGDTSRASGVPDRFSGSRSGNTATLTISSLQAEDEADYFCASAEDSSSNAVFGSGTTLTVL",–,–,0.024 nM
